For test [1], the target named is T1, DNA polymerase III α subunit (Escherichia coli, UniProt P10443 1-1160). The experiment in a line: single molecule DNA stretching.
The target of test [2] is T1, DNA polymerase III α subunit. Put plainly: other fluorescence titration.

For orientation: Kd means the free concentration of one partner at which half of the binding sites on the other are occupied at equilibrium, for simple one-to-one binding.

T1 sequence (P10443 whole entry): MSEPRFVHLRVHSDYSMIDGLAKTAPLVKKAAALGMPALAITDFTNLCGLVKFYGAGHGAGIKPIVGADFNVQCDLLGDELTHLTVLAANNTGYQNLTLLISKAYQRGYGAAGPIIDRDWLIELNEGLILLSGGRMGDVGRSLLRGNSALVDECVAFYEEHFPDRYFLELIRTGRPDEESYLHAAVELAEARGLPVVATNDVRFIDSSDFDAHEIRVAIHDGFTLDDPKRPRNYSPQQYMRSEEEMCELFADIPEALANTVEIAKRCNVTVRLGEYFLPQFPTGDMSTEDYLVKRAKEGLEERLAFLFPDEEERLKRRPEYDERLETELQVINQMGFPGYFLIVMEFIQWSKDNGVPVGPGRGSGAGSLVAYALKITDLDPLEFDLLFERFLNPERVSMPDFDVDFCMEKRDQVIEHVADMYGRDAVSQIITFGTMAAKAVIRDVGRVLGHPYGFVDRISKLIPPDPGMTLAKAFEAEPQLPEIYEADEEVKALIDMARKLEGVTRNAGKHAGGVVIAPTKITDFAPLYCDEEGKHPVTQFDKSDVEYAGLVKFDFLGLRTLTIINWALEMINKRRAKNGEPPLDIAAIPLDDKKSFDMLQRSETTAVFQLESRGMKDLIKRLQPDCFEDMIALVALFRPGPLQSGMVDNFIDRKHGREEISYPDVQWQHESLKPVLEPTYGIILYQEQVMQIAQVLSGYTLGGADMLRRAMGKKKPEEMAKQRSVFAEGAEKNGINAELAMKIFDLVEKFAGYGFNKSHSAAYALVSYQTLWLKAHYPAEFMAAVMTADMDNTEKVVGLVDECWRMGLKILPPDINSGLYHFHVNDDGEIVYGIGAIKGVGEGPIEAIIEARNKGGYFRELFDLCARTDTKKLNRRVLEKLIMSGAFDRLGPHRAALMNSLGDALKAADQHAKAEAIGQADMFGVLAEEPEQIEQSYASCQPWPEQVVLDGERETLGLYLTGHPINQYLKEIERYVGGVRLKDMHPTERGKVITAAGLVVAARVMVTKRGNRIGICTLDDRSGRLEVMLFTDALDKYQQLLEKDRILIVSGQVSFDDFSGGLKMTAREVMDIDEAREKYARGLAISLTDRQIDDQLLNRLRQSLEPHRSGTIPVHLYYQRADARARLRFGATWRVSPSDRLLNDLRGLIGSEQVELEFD

B1: UmuD, wild type (natural protein, Escherichia coli, UniProt P0AG11 1-139, looked up)
chain: MLFIKPADLREIVTFPLFSDLVQCGFPSPAADYVEQRIDLNQLLIQHPSATYFVKASGDSMIDGGISDGDLLIVDSAITASHGDIVIAAVDGEFTVKKLQLRPTVQLIPMNSAYSPITISSEDTLDVFGVVIHVVKAMR
B1 displayed a Kd in test [1] of 0.34 ± 0.103 µM.

B2: UmuD D91K (natural protein, Escherichia coli, UniProt P0AG11 1-139, looked up)
chain: MLFIKPADLREIVTFPLFSDLVQCGFPSPAADYVEQRIDLNQLLIQHPSATYFVKASGDSMIDGGISDGDLLIVDSAITASHGDIVIAAVKGEFTVKKLQLRPTVQLIPMNSAYSPITISSEDTLDVFGVVIHVVKAMR
On to B2, for which, in test [2], the Kd came out at 18.1 µM.

B3: UmuD D91K-G92K (natural protein, Escherichia coli, UniProt P0AG11 1-139, looked up)
chain: MLFIKPADLREIVTFPLFSDLVQCGFPSPAADYVEQRIDLNQLLIQHPSATYFVKASGDSMIDGGISDGDLLIVDSAITASHGDIVIAAVKKEFTVKKLQLRPTVQLIPMNSAYSPITISSEDTLDVFGVVIHVVKAMR
B3 yielded a Kd in test [2] of 32.5 µM.

B4: UmuD G92K (natural protein, Escherichia coli, UniProt P0AG11 1-139, looked up)
chain: MLFIKPADLREIVTFPLFSDLVQCGFPSPAADYVEQRIDLNQLLIQHPSATYFVKASGDSMIDGGISDGDLLIVDSAITASHGDIVIAAVDKEFTVKKLQLRPTVQLIPMNSAYSPITISSEDTLDVFGVVIHVVKAMR
In the case of B4, the dissociation constant Kd in test [2] came out at 1.3 µM.

Source of the values: article PMC3799427 (Nucleic Acids Research, 2013).
